Data on 23 sequences can be found in the DeepSol protein solubility set.

The series can be described thus: soluble on expression in E. coli; label from the status in PepcDB or PDB records.
“SLHEFGITQNIVAIVTEHAKGAKVQRVLLEIGKLSAIMPDAIRFCFDICTQGTVLEGATLEILEIPGLGRCRQCGGEIYLDKPFGICNCGSVQLDLITGEELKIKEIEIEELCV”: the “soluble on expression in E. coli” value is “soluble”.
With “MHHHHHHQYKLALNGKTLKGETTTEAVDAATAEKVFKQYANDNGVDGEWTYDDATKTFTVTEGSQWQPQLQQLRDMGIQDDELSLRALQATGGDIQAALELIFAGGAP”, the “soluble on expression in E. coli” value is listed as “soluble”.
Next, “LMPLRDIVIFPTMVQPLFVGRRFSIRAIEEANKKDKLIFLVLQKDKDVEEPKEEDIYKVGVVAYILRTVPIEDARVKVLVQGLKRGVIKKLEWKEDHYVAQVDVIEERDIPPESQTIEDKALIKAVKESIDKLVSLGKQIIPDLVVLIKELEEPGKLADMVASILDIKSSQAQEILETFDPRERLKK”: “soluble”; “MVQAFEPYIALNSHVRKPVIHISLNPSPKDILSKEQMTVLAQEFMEKFGYGNQPYIVWLHEDIDRKHMHIISVRINEKGEKIDHNREAIRAQNICRDMEVKYGLHSTLGEHSERELLSLQKVDYPKGDVKAQVKHTARTLLECYNCHSLAEYNTLLNLYNVTVYEVRGSVDGKEYYGIMYGALDDDGQQAGTPFKSSKFGKVFGYEALQKKFAATAEKVLEHHHHHH”: “not soluble”; “MHPTAAALIRTLGLAPHPEGGHYRRVYASTRQVLDDSGAPPRPALTAIRFLLCAGEASRWHRVDAEECWHWQQGAPLELLIFDEASGQLRREVLDAAERGDAMHVVPAGCWQAARSLGDFTLVGCTVSPGFVWEGFALLEDGSPLAAQLAALVAEGAAPEPPTLPLEHHHHHH”: “not soluble”.
The result for “MSLGLINVLIADDQTLMREGLKTIIDLEDDMNVTGLAKNGKEVLDQIPCLLPHVILMDIQMPIMNGIECLKVVKRIYPHINVLMLTTFEDDDYIIESLVGGANGFLLKDLNYDQLIYSIRQSVDGQMLIPNSIAVKLAKQLSKYNELTEVDLQIEKLKKEGLHFSERERQIASLLAQGLTNKKIAEKLYITEGTVKNYISEIYSKIGIRDRMQASTYLRELGINDEGHHHHHH” reads “soluble”; that for “GPGSMSEELILQWAKRVSDAEEELHRMEEDINAVKQQRKLLKADIRKYEDVVASEKCDLLTSLERVEAQAKDLGAQCEATLTEKDRVEAEYMATLDAYENLHFLVREIKDAEEHLQSRDDLEACLQRESVTWAEEEHTLRRKLHELQQQQAQARRAQEAEVRELEAQLSNVEQRQRDERAGRCVEVAQAARRVVHSSRQPTPASPKPVTSAEEDAFVSANAGGAMPIRSAPLKSCLKTPVNGSTSGNAAPTAPRHTTAASAPVSRCASQSLVSDAAASGVQRQGVDGGDQPSLRLLQEMRAYSYGAPCKAGARKREFLGDATNNQ”, “soluble”; that for “MGTLSVNQNKLQKRLRRLAGEAVADFNMIEEGDKVMVCLSGGKDSYTLLDVLMHFQKVAPIRFDIVAVNMDQKQPGFPEHVLPAYLKELGVEYHIVEKDTHSVVKELIPEGKTTCSLCSRLRRGTLYTFADQIGATKMALGHHRDDIIETFFLNMFFNGALKAMPPKLRADDGRNVVIRPLAYCHEKDIQAYSDLKQFPIIPCNL”, “not soluble”.
Next, “MRKKDAYISQVKVRQDPVNQLAVEMRAKRFGLTIEEAKNPLAGSYVGRLCLQGVLTQDQYDATQKYLEVRNDYSCAKGLPSAVYDEKPSSSDDKAREKWVERATEQFCNTQKVLKEAQCLYRQHNLYAALQYLVMEDQELPHLVNALRIALNTLQKYFDPKSKWEMFYCYEKLLKNR”: “not soluble”; “MGSDKIHHHHHHMATVTTSEGSAERREADSGALARGLNILSRLHEAARPLSLQDIAESVGLPTTTCHRLLQSLDVAGYVYREGSLYCPTPRAACPLPLEHPLNRLRRDTAPLMRELQERHGPSVLLIAFLGDHRVTVECVAGNYSVTPYFDTTVTAPLHASVSGKILLSDRTDEQRDALLGQAPYSARTEWTIRDRAALYAELEEVRKRGWATNQNENVIGICAVGSRLAAPSGRALGAIVLTGPSRFFAKGFDTMRDDLLQACQMLNSTSHAIRTMTQLLGV”: “not soluble”.
With “MLQIIVPMAGAGSRFAVAGYTDPKPLIPVHGVPMIKVVIDNLTPDCPHRFIFICQAEQVAAYGLREKLNAWAPGCGIVELGGLTGGAACTVYAARHLINYDQQVMIANSDQYVDVDINAYLHAMNECDAAGLIMTMKASDPKWSFVGFDSQGHINRVVEKEVISDEATVGIYNFRSGGQLVSAIEAMVLKDLRVNGEFYVAPAYNELIEQGAKVIHYSIGAEGHGMYGLGIPVDLNLFLSLPLSRQAASGVGNLEHHHHHH”, the “soluble on expression in E. coli” value is given as “not soluble”.
The result for “MGHHHHHHSHMLSSNGASKVANSEAMILDKNLESVNSPIEKSSVNYEPSNPSEKGSKKINLSSDQNKSVSESNNDDVMLISVESPNLTTPTTSNPTDTRKITSGNSSNSPNAEVMAVQKKLDSIIDLTKEGLSNCNTESPVSPLESHSKAASNSKETTPLAQNAVQVPESFEHLPPLPEPPAPLPELVDKTRDTLPPQKPELKVKRVFRPNGIALTWNITKINPKCAPVESYHLFLCHENSNNKLIWKKIGEIKALPLPMACTLSQFLASNRYYFTVQSKDIFGRYGPFCDIKSIPGFSENLT” reads “soluble”.
Next, “MGSDKIHHHHHHMNELQAILEGFESSQESGEITFLATVVKTQGSTYRRPGAKMFMTNTGRTIGTISAGCLENDVFEYTQQRMSDGKPILVTYDRTASEDILWGFGLGCNGVVQVLIERLERKSIPNAIAFTQECFHKKHLGIIATVFAFEGEVDVELGSRLLLYPNGKIVTDIKDQYLIQSLSADTQAAFVNQKPSVNNYQLPFGSAEVFIEVIQPPTPLVIFGAGYGAVPIAKFAQALGWDVTVVDCRANDTTRARFPLACDVILSNRYIIHKQIFIDVQTIAVVMTHNYLDDLEILKMMLPSPARYIGVLGTKYRTERLLEDLSIKGIVPTSEQLNRLYSPVGIDIGAETPEEIAIAIIAEIQAVLKNRNSNFLKNRNQPIHKSYQDNFNL”: “not soluble”; “MGSDKIHHHHHHMNAQEERSRDWVSIRRPFAKAGLETMTARYIQQSFKPHAHDEYVIGIIEGGVHSVWCRGIHHNMPSGTVVTMHPGDVHYGNAAIAEGWKQRMIYISENEIGKFISDIAGGDKFLLPDFKQTFHDRPDLAHSFAQFHEVLHSSPLALARDVALDSIMRVTIGALSPDFVKAKDAKQPSGRIADAVEFLHNRIEDDVTLDELCDVAGLRRRQTIEAFKRCTGLPPHAYHVIQKVKAVKTMLRDGFSATEAAARAGFADQSHMTRHFVGVVGMTPGAYALDCQKKY”: “not soluble”; “MELLQGKTFVVMGVANQRSIAWGIARSLHNAGAKLIFTYAGERLERNVRELADTLEGQESLVLPCDVTNDEELTACFETIKQEVGTIHGVAHCIAFANRDDLKGEFVDTSRDGFLLAQNISAFSLTAVAREAKKVMTEGGNILTLTYLGGERVVKNYNVMGVAKASLEASVKYLANDLGQHGIRVNAISAGPIRTLSAKGVGDFNSILREIEERAPLRRTTTQEEVGDTAVFLFSDLARGVTGENIHVDSGYHILG”: “soluble”.
In the case of “MAHHHHHHMDREDDKKNKFPFTQNNCVVVRSKLDRKNISKMKLSDEQVTANEEITKSVLLKEVNMQDAYDQIGKNANDFSRIYNLFERELLNKSNIKNVYINGIKKNIIVDDGHMKTKVEKKSLKLIDEIHLTYKKRPIILIEKESSNHIINRNNVESFFVHNCLDNSGANRKGTHAASGGGEGAVTGPYNSIPIIYKMFNKKKSIKFSFIENDQISKLTETDWKCVIAVIIKSKESLKDILNEYPFEIPTALFQPFKSFFFMFNDVIIPSDLLTGGNVDIIRLSRDKRKEDYLAVNKFWTNIEKFILQRRDKSCYTRKKKF”, the “soluble on expression in E. coli” value was “not soluble”.
On to “MIMFNYQQTSQSCVKCGKCIPSCTIYNIHPDEVTSPRGFIDLLGAYQRGELELDKNAKDIFEKCFLCTNCTYVCPNLLPTDQVIENVRAEIAQKFGIAWFKRAYFFLLRNRWLEHHHHHH”, for which the “soluble on expression in E. coli” value is reported as “soluble”.
With “MAFISFRDFMEKAVKDYYSSQRALKDFFTAPELDRAFGEALAEFFSQHLSEFERPALVELGAGRGLLAYDILNYYRANYPDLFNRLKYYIYEFSPYLISKQREVLKNFKNVEWVEELPKVEGIVFSNEFFDALPVHIVKGGKELYVDEKGSEVWLSLENEKVKEFLRRMNYENLNQIVEVCLDCIDMLKKISESLVEGYHFVIDYGYTSEEITKYPEGTVVAYKEHKVVKDFLKEAGNADITAHVNFSALMEYGRDFGLETILFQSQRDFLMHIPTFLNELEKLSWEESAESVERLSRLKTMLISMGDRFKVLLQRKLSQLEHHHHHH”, the “soluble on expression in E. coli” value is “not soluble”.
The result for “MNKSESRYYATAARMDEAFLTLLAKKDFEYITVKEICEVAGVNRSTFYLHYETMSDLLSESISRINEQFLAYMEKDSDAFSAKLRNCPRDELYLITPDYLTPYLSYIKNNKRLFRTATENAAVLGMDKSYDRMFRHVFTPILDRYGVLQQDRPYIMAFYIRGLMAIISEWLKNDCTDSITYVTGVIQQCVKMPQSETMNAV” reads “not soluble”.
The result for “MVDMAVTPVALLEASHLHYHVQQQALINDVSLHIASGEMVAIIGPNGAGKSTLLRLLTGYLSPSHGECHLLGQNLNSWQPKALARTRAVMRQYSELAFPFSVSEVIQMGRAPYGGSQDRQALQQVMAQTDCLALAQRDYRVLSGGEQQRVQLARVLAQLWQPQPTPRWLFLDEPTSALDLYHQQHTLRLLRQLTRQEPLAVCCVLHDLNLAALYADRIMLLAQGKLVACGTPEEVLNAETLTQWYQADLGVSRHPESALPQIYLRQ” reads “not soluble”; that for “GPGSMSTALFVQATFFNTDNKSTDNKLMTTAAVSHNQSSQDNIMVVNLQKELQKRLEEDAGVKTLYITMGGEPRFNRALFENKSMALFVGDSMSIHHFTDDYGRITRRLLILYPMTFSRREEIPKQQILKKVEKAANQPEDNCGIEVVDLVELQKKHVYLEGQAAACYSYNGEFVYMALSGRSSEQVLSIICAPENLNIPNEKRFVFTAVLPHRSKENGRVIGEDVIPYTSLVGWCGKGICAWGLEFLRFPSEKDQEAFYEHLENNYSKVINLDESELRAFCGNAREVAIAHGNGERRVLCISHQALNALRPFKRQMLEDWYGLGNILPFYADVLERRAGRSVGSLVSVPVIHGEVLPLPGELGVIEAAKVDIKDGGC”, “soluble”.
In the case of “MIVIPMAGMSSRFFKAGYTQPKYMLEAHGQTLFEHSVNSFAAYFASTPFLFIVRNVYDTAVFVREKATQLGIKQFYIAELHTETRGQAETVTLGLEELAKQGVDYQGSITVFNIDTFRPNFVFPDISQHSDGYLEVFQGGGDNWSFAKPEHAGSTKVIQTAEKNPISDLCSTGLYHFNRKEDYLEAYREYVARPSQEWERGELYIAPLYNLLIQKGLNIHYHLIARHEVIFCGVPDEYTDFLRQPQPLEHHHHHH”, the “soluble on expression in E. coli” value is reported as “soluble”.
The result for “MSLPRGLELLIAQTILQGFDAQYGRFLEVTSGAQQRFEQADWHAVQQAMKNRIHLYDHHVGLVVEQLRCITNGQSTDAAFLLRVKEHYTRLLPDYPRFEIAESFFNSVYCRLFDHRSLTPERLFIFSSQPERRFRTIPRPLAKDFHPDHGWESLLMRVISDLPLRLRWQNKSRDIHYIIRHLTETLGTDNLAESHLQVANELFYRNKAAWLVGKLITPSGTLPFLLPIHQTDDGELFIDTCLTTTAEASIVFGFARSYFMVYAPLPAALVEWLREILPGKTTAELYMAIGCQKHAKTESYREYLVYLQGCNEQFIEAPGIRGMVMLVFTLPGFDRVFKVIKDRFAPQKEMSAAHVRACYQLVKEHDRVGRMADTQEFENFVLEKRHISPALMELLLQEAAEKITDLGEQIVIRHLYIERRMVPLNIWLEQVEGQQLRDAIEEYGNAIRQLAAANIFPGDMLFKNFGVTRHGRVVFYDYDEICYMTEVNFRDIPPPRYPEDELASEPWYSVSPGDVFPEEFRHWLCADPRIGPLFEEMHADLFRADYWRALQNRIREGHVEDVYAYRRRQRFSVRYGEMLFEGHHHHHH” reads “not soluble”.
